In patent US20110142868A1 (CHIRALIX B V, published 2011):
Numbered stars: 1 amine (or outer) side, 2 acyl side, 3 side chain; on linkers, the order of the positions; unused ones are H or OH. Square brackets hold non-standard residues; d marks the D form. Orn(CA) = ornithine chloroamidine, O(CA), N=C(CCl)NCCC[C@H](N[*:1])C(=O)[*:2]; Orn(fluoroacetimidoyl) = N=C(CF)NCCC[C@H](N)C(=O)O

B1: 0741-01FA (peptide)
peptide: Ac-FFDSKHFD[Orn(fluoroacetimidoyl)]EWIWSD-NH2
SMILES: CC[C@H](C)[C@H](NC(=O)[C@H](Cc1c[nH]c2ccccc12)NC(=O)[C@H](CCC(=O)O)NC(=O)[C@H](CCCNC(=N)CF)NC(=O)[C@H](CC(=O)O)NC(=O)[C@H](Cc1ccccc1)NC(=O)[C@H](Cc1c[nH]cn1)NC(=O)[C@H](CCCCN)NC(=O)[C@H](CO)NC(=O)[C@H](CC(=O)O)NC(=O)[C@H](Cc1ccccc1)NC(=O)[C@H](Cc1ccccc1)NC(C)=O)C(=O)N[C@@H](Cc1c[nH]c2ccccc12)C(=O)N[C@@H](CO)C(=O)N[C@@H](CC(=O)O)C(N)=O
B2: 0741-04FA (peptide)
peptide: Ac-FFDSHKLH[Orn(fluoroacetimidoyl)]EWMWSD-NH2
SMILES: CSCC[C@H](NC(=O)[C@H](Cc1c[nH]c2ccccc12)NC(=O)[C@H](CCC(=O)O)NC(=O)[C@H](CCCNC(=N)CF)NC(=O)[C@H](Cc1c[nH]cn1)NC(=O)[C@H](CC(C)C)NC(=O)[C@H](CCCCN)NC(=O)[C@H](Cc1c[nH]cn1)NC(=O)[C@H](CO)NC(=O)[C@H](CC(=O)O)NC(=O)[C@H](Cc1ccccc1)NC(=O)[C@H](Cc1ccccc1)NC(C)=O)C(=O)N[C@@H](Cc1c[nH]c2ccccc12)C(=O)N[C@@H](CO)C(=O)N[C@@H](CC(=O)O)C(N)=O
B3: 0741-05FA (peptide)
peptide: Ac-DSHKFD[Orn(fluoroacetimidoyl)]DFIYSD-NH2
SMILES: CC[C@H](C)[C@H](NC(=O)[C@H](Cc1ccccc1)NC(=O)[C@H](CC(=O)O)NC(=O)[C@H](CCCNC(=N)CF)NC(=O)[C@H](CC(=O)O)NC(=O)[C@H](Cc1ccccc1)NC(=O)[C@H](CCCCN)NC(=O)[C@H](Cc1c[nH]cn1)NC(=O)[C@H](CO)NC(=O)[C@H](CC(=O)O)NC(C)=O)C(=O)N[C@@H](Cc1ccc(O)cc1)C(=O)N[C@@H](CO)C(=O)N[C@@H](CC(=O)O)C(N)=O
B4: 0741-06FA (peptide)
peptide: Ac-DSKKHD[Orn(fluoroacetimidoyl)]DFLYSD-NH2
SMILES: CC(=O)N[C@@H](CC(=O)O)C(=O)N[C@@H](CO)C(=O)N[C@@H](CCCCN)C(=O)N[C@@H](CCCCN)C(=O)N[C@@H](Cc1c[nH]cn1)C(=O)N[C@@H](CC(=O)O)C(=O)N[C@@H](CCCNC(=N)CF)C(=O)N[C@@H](CC(=O)O)C(=O)N[C@@H](Cc1ccccc1)C(=O)N[C@@H](CC(C)C)C(=O)N[C@@H](Cc1ccc(O)cc1)C(=O)N[C@@H](CO)C(=O)N[C@@H](CC(=O)O)C(N)=O
B5: 0741-01CA (peptide)
peptide: Ac-FFDSKHFD[Orn(CA)]EWIWSD-NH2
SMILES: CC[C@H](C)[C@H](NC(=O)[C@H](Cc1c[nH]c2ccccc12)NC(=O)[C@H](CCC(=O)O)NC(=O)[C@H](CCCNC(=N)CCl)NC(=O)[C@H](CC(=O)O)NC(=O)[C@H](Cc1ccccc1)NC(=O)[C@H](Cc1c[nH]cn1)NC(=O)[C@H](CCCCN)NC(=O)[C@H](CO)NC(=O)[C@H](CC(=O)O)NC(=O)[C@H](Cc1ccccc1)NC(=O)[C@H](Cc1ccccc1)NC(C)=O)C(=O)N[C@@H](Cc1c[nH]c2ccccc12)C(=O)N[C@@H](CO)C(=O)N[C@@H](CC(=O)O)C(N)=O
B6: 0741-02CA (peptide)
peptide: Ac-FFDSHKWH[Orn(CA)]DFFYSD-NH2
SMILES: CC(=O)N[C@@H](Cc1ccccc1)C(=O)N[C@@H](Cc1ccccc1)C(=O)N[C@@H](CC(=O)O)C(=O)N[C@@H](CO)C(=O)N[C@@H](Cc1c[nH]cn1)C(=O)N[C@@H](CCCCN)C(=O)N[C@@H](Cc1c[nH]c2ccccc12)C(=O)N[C@@H](Cc1c[nH]cn1)C(=O)N[C@@H](CCCNC(=N)CCl)C(=O)N[C@@H](CC(=O)O)C(=O)N[C@@H](Cc1ccccc1)C(=O)N[C@@H](Cc1ccccc1)C(=O)N[C@@H](Cc1ccc(O)cc1)C(=O)N[C@@H](CO)C(=O)N[C@@H](CC(=O)O)C(N)=O
B7: 0741-03CA (peptide)
peptide: Ac-FFDSHKFD[Orn(CA)]DFIYSD-NH2
SMILES: CC[C@H](C)[C@H](NC(=O)[C@H](Cc1ccccc1)NC(=O)[C@H](CC(=O)O)NC(=O)[C@H](CCCNC(=N)CCl)NC(=O)[C@H](CC(=O)O)NC(=O)[C@H](Cc1ccccc1)NC(=O)[C@H](CCCCN)NC(=O)[C@H](Cc1c[nH]cn1)NC(=O)[C@H](CO)NC(=O)[C@H](CC(=O)O)NC(=O)[C@H](Cc1ccccc1)NC(=O)[C@H](Cc1ccccc1)NC(C)=O)C(=O)N[C@@H](Cc1ccc(O)cc1)C(=O)N[C@@H](CO)C(=O)N[C@@H](CC(=O)O)C(N)=O
B8: 0741-04CA (peptide)
peptide: Ac-FFDSHKLH[Orn(CA)]EWMWSD-NH2
SMILES: CSCC[C@H](NC(=O)[C@H](Cc1c[nH]c2ccccc12)NC(=O)[C@H](CCC(=O)O)NC(=O)[C@H](CCCNC(=N)CCl)NC(=O)[C@H](Cc1c[nH]cn1)NC(=O)[C@H](CC(C)C)NC(=O)[C@H](CCCCN)NC(=O)[C@H](Cc1c[nH]cn1)NC(=O)[C@H](CO)NC(=O)[C@H](CC(=O)O)NC(=O)[C@H](Cc1ccccc1)NC(=O)[C@H](Cc1ccccc1)NC(C)=O)C(=O)N[C@@H](Cc1c[nH]c2ccccc12)C(=O)N[C@@H](CO)C(=O)N[C@@H](CC(=O)O)C(N)=O
B9: 0741-05CA (peptide)
peptide: Ac-DSHKFD[Orn(CA)]DFIYSD-NH2
SMILES: CC[C@H](C)[C@H](NC(=O)[C@H](Cc1ccccc1)NC(=O)[C@H](CC(=O)O)NC(=O)[C@H](CCCNC(=N)CCl)NC(=O)[C@H](CC(=O)O)NC(=O)[C@H](Cc1ccccc1)NC(=O)[C@H](CCCCN)NC(=O)[C@H](Cc1c[nH]cn1)NC(=O)[C@H](CO)NC(=O)[C@H](CC(=O)O)NC(C)=O)C(=O)N[C@@H](Cc1ccc(O)cc1)C(=O)N[C@@H](CO)C(=O)N[C@@H](CC(=O)O)C(N)=O
B10: 0741-06CA (peptide)
peptide: Ac-DSKKHD[Orn(CA)]DFLYSD-NH2
SMILES: CC(=O)N[C@@H](CC(=O)O)C(=O)N[C@@H](CO)C(=O)N[C@@H](CCCCN)C(=O)N[C@@H](CCCCN)C(=O)N[C@@H](Cc1c[nH]cn1)C(=O)N[C@@H](CC(=O)O)C(=O)N[C@@H](CCCNC(=N)CCl)C(=O)N[C@@H](CC(=O)O)C(=O)N[C@@H](Cc1ccccc1)C(=O)N[C@@H](CC(C)C)C(=O)N[C@@H](Cc1ccc(O)cc1)C(=O)N[C@@H](CO)C(=O)N[C@@H](CC(=O)O)C(N)=O
B11: 0741-02FA (peptide)
peptide: Ac-FFDSHKWH[Orn(fluoroacetimidoyl)]DFFYSD-NH2
SMILES: CC(=O)N[C@@H](Cc1ccccc1)C(=O)N[C@@H](Cc1ccccc1)C(=O)N[C@@H](CC(=O)O)C(=O)N[C@@H](CO)C(=O)N[C@@H](Cc1c[nH]cn1)C(=O)N[C@@H](CCCCN)C(=O)N[C@@H](Cc1c[nH]c2ccccc12)C(=O)N[C@@H](Cc1c[nH]cn1)C(=O)N[C@@H](CCCNC(=N)CF)C(=O)N[C@@H](CC(=O)O)C(=O)N[C@@H](Cc1ccccc1)C(=O)N[C@@H](Cc1ccccc1)C(=O)N[C@@H](Cc1ccc(O)cc1)C(=O)N[C@@H](CO)C(=O)N[C@@H](CC(=O)O)C(N)=O

What follows are binders tested against recombinant human PAD4 (human, UniProt Q9UM07 1-663) (assay: cell-based or functional assay).
recombinant human PAD4, sequence (Q9UM07 whole entry): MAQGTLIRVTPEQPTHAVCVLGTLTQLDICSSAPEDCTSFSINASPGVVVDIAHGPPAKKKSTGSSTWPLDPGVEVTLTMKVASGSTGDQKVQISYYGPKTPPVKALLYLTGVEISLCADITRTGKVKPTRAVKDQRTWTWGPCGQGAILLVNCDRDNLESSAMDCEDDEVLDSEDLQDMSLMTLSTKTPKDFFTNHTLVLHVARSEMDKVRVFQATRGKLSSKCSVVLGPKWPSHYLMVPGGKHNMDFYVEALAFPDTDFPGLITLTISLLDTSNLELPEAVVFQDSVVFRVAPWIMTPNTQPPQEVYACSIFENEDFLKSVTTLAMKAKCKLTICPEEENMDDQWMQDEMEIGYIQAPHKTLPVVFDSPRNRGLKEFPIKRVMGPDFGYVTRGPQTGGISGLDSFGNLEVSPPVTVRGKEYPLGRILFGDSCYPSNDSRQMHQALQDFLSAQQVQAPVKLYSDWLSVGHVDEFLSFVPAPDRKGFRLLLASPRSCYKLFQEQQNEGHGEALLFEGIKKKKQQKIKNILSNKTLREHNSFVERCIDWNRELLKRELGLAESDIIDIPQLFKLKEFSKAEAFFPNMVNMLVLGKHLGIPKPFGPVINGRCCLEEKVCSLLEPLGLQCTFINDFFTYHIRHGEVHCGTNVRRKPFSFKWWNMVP
In the case of B1, the “conversion of 0708-30 by PAD4, 10 µM inhibitor” value is reported as 63%, the “conversion of 0708-30 by PAD4, 50 µM inhibitor” value is reported as 24% and the “conversion of 0708-30 by PAD4, 100 µM inhibitor” value is reported as 15%.
B2 was tested, and the “conversion of 0708-30 by PAD4, 10 µM inhibitor” value was 64%, the “conversion of 0708-30 by PAD4, 50 µM inhibitor” value was 28% and the “conversion of 0708-30 by PAD4, 100 µM inhibitor” value was 14%.
B3 was tested, and the “conversion of 0708-30 by PAD4, 10 µM inhibitor” value was 55%, the “conversion of 0708-30 by PAD4, 50 µM inhibitor” value was 22% and the “conversion of 0708-30 by PAD4, 100 µM inhibitor” value was 14%.
In the case of B4, the “conversion of 0708-30 by PAD4, 10 µM inhibitor” value is reported as 74%, the “conversion of 0708-30 by PAD4, 50 µM inhibitor” value is reported as 43% and the “conversion of 0708-30 by PAD4, 100 µM inhibitor” value is reported as 27%.
B5 was tested, and the “conversion of 0708-30 by PAD4, 10 µM inhibitor” value was 63%, the “conversion of 0708-30 by PAD4, 50 µM inhibitor” value was 31% and the “conversion of 0708-30 by PAD4, 100 µM inhibitor” value was 17%.
For B6, the “conversion of 0708-30 by PAD4, 10 µM inhibitor” value was 63%, the “conversion of 0708-30 by PAD4, 50 µM inhibitor” value was 31% and the “conversion of 0708-30 by PAD4, 100 µM inhibitor” value was 19%.
In the case of B7, the “conversion of 0708-30 by PAD4, 10 µM inhibitor” value is reported as 62%, the “conversion of 0708-30 by PAD4, 50 µM inhibitor” value is reported as 24% and the “conversion of 0708-30 by PAD4, 100 µM inhibitor” value is reported as 14%.
B8 was tested, and the “conversion of 0708-30 by PAD4, 10 µM inhibitor” value was 68%, the “conversion of 0708-30 by PAD4, 50 µM inhibitor” value was 55% and the “conversion of 0708-30 by PAD4, 100 µM inhibitor” value was 26%.
With B9 the “conversion of 0708-30 by PAD4, 10 µM inhibitor” value was 74%, the “conversion of 0708-30 by PAD4, 50 µM inhibitor” value was 34% and the “conversion of 0708-30 by PAD4, 100 µM inhibitor” value was 25%.
With B10 the “conversion of 0708-30 by PAD4, 10 µM inhibitor” value was 74%, the “conversion of 0708-30 by PAD4, 50 µM inhibitor” value was 64% and the “conversion of 0708-30 by PAD4, 100 µM inhibitor” value was 50%.
In the case of B11, the “conversion of 0708-30 by PAD4, 10 µM inhibitor” value is reported as 50%, the “conversion of 0708-30 by PAD4, 50 µM inhibitor” value is reported as 20% and the “conversion of 0708-30 by PAD4, 100 µM inhibitor” value is reported as 16%.

What follows are binders tested against recombinant human PAD2 (human, UniProt Q9Y2J8 1-665) (assay: cell-based or functional assay).
recombinant human PAD2, sequence (Q9Y2J8 whole entry): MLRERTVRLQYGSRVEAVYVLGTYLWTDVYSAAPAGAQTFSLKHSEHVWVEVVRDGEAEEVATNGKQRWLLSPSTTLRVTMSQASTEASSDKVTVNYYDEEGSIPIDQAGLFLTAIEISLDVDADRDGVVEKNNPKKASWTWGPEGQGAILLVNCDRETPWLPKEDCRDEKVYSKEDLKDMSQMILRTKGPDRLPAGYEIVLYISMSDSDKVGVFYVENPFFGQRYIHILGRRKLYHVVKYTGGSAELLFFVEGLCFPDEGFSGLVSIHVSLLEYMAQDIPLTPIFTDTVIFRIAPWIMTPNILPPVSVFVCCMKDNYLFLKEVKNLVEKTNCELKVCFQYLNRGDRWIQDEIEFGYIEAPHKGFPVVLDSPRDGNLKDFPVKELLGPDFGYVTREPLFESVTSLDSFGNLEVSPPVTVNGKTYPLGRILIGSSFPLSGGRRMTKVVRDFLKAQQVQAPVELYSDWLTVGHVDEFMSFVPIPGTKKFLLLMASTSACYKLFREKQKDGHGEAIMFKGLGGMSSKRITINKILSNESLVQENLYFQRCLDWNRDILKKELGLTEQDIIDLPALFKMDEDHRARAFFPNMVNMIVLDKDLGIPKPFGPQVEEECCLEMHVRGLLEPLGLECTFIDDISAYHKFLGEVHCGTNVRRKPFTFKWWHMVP
In the case of B1, the “conversion of 0708-30 by PAD2, 10 µM inhibitor” value is reported as 69%, the “conversion of 0708-30 by PAD2, 50 µM inhibitor” value is reported as 29% and the “conversion of 0708-30 by PAD2, 100 µM inhibitor” value is reported as 14%.
For B2, the “conversion of 0708-30 by PAD2, 10 µM inhibitor” value was 62%, the “conversion of 0708-30 by PAD2, 50 µM inhibitor” value was 24% and the “conversion of 0708-30 by PAD2, 100 µM inhibitor” value was 14%.
B3 was tested, and the “conversion of 0708-30 by PAD2, 10 µM inhibitor” value was 54%, the “conversion of 0708-30 by PAD2, 50 µM inhibitor” value was 24% and the “conversion of 0708-30 by PAD2, 100 µM inhibitor” value was 15%.
For B4, the “conversion of 0708-30 by PAD2, 10 µM inhibitor” value was 73%, the “conversion of 0708-30 by PAD2, 50 µM inhibitor” value was 42% and the “conversion of 0708-30 by PAD2, 100 µM inhibitor” value was 25%.
With B5 the “conversion of 0708-30 by PAD2, 10 µM inhibitor” value was 69%, the “conversion of 0708-30 by PAD2, 50 µM inhibitor” value was 38% and the “conversion of 0708-30 by PAD2, 100 µM inhibitor” value was 23%.
With B6 the “conversion of 0708-30 by PAD2, 10 µM inhibitor” value was 67%, the “conversion of 0708-30 by PAD2, 50 µM inhibitor” value was 32% and the “conversion of 0708-30 by PAD2, 100 µM inhibitor” value was 18%.
With B7 the “conversion of 0708-30 by PAD2, 10 µM inhibitor” value was 57%, the “conversion of 0708-30 by PAD2, 50 µM inhibitor” value was 49% and the “conversion of 0708-30 by PAD2, 100 µM inhibitor” value was 23%.
In the case of B8, the “conversion of 0708-30 by PAD2, 10 µM inhibitor” value is reported as 69%, the “conversion of 0708-30 by PAD2, 50 µM inhibitor” value is reported as 47% and the “conversion of 0708-30 by PAD2, 100 µM inhibitor” value is reported as 50%.
With B9 the “conversion of 0708-30 by PAD2, 10 µM inhibitor” value was 62%, the “conversion of 0708-30 by PAD2, 50 µM inhibitor” value was 44% and the “conversion of 0708-30 by PAD2, 100 µM inhibitor” value was 31%.
For B10, the “conversion of 0708-30 by PAD2, 10 µM inhibitor” value was 63%, the “conversion of 0708-30 by PAD2, 50 µM inhibitor” value was 45% and the “conversion of 0708-30 by PAD2, 100 µM inhibitor” value was 48%.
For B11, the “conversion of 0708-30 by PAD2, 10 µM inhibitor” value was 52%, the “conversion of 0708-30 by PAD2, 50 µM inhibitor” value was 17% and the “conversion of 0708-30 by PAD2, 100 µM inhibitor” value was 7%.
